Measured values published in US20240000892A1.

Target: IL-2 receptor (CD25, CD122 and CD132) on Kupffer cells of C57BL/6 mice (mouse (C57BL/6)) (UniProt P01590)
Test: cell-based or functional assay

UniProt P01590, sequence (P01590 22-268, chain 1 of 3): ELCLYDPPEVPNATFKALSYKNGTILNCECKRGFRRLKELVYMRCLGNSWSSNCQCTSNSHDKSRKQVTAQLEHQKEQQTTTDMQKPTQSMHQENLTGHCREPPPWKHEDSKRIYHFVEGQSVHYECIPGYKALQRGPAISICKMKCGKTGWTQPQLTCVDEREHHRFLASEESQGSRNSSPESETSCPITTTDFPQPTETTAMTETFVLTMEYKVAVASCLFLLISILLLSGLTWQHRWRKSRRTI
UniProt P01590, sequence (P16297 27-539, chain 2 of 3, further chain): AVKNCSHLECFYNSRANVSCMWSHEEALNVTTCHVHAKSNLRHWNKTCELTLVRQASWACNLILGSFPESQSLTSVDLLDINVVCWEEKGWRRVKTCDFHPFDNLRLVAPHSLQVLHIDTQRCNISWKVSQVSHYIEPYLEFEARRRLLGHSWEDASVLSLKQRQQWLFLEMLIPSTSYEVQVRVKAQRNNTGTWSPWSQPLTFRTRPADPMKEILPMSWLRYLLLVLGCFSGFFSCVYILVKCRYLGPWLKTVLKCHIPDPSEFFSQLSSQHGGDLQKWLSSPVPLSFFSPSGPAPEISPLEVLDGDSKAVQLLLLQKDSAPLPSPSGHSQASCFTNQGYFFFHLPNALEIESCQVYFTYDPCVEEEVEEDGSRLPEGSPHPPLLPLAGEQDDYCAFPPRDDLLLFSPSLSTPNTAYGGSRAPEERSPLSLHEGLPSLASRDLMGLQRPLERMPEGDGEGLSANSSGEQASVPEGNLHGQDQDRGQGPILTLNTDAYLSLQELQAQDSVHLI
UniProt P01590, sequence (P34902 23-369, chain 3 of 3, further chain): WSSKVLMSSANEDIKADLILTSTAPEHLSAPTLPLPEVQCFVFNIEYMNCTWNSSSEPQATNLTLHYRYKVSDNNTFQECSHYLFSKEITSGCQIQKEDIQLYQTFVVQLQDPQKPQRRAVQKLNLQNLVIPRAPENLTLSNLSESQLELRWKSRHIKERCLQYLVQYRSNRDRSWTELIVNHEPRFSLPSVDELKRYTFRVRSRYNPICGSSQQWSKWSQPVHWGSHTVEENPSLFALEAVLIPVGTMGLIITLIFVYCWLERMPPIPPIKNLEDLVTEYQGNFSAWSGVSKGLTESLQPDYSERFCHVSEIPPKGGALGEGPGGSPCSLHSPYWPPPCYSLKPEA

IL-2-dependent fold change in STAT5 phosphorylation in KCs, compared with CD4+ FoxP3+ splenic T regulatory cells: 10 fold lower
Substance: recombinant IL-2 (402 ML/CF, R&D Systems) (from UniProt P04351 21-169) (ligand)
